Measured values reported in patent US20200115464A1 (Regeneron, published 2020).

T1: His-tagged human FcγRIIB (human, UniProt P31994 46-217, limits assumed)
T1 construct: also called human FcyRIIB
T1 sequence (looked up): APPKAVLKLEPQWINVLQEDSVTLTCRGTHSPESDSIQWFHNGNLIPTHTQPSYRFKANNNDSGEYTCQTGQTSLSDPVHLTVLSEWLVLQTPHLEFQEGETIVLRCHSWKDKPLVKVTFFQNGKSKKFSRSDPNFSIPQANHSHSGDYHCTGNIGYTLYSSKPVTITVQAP

T2: His-tagged cynomolgus FcγRIIA (cynomolgus monkey, UniProt A0A140HDN0 30-216)
T2 construct: also called cyno FcyRIIA
T2 sequence: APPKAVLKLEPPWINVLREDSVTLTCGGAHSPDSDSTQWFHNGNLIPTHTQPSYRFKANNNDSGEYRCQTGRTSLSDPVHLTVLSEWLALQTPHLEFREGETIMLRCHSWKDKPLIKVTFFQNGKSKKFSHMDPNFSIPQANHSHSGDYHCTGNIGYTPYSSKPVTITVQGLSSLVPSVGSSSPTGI

T3: His-tagged cynomolgus FcγRIIB (cynomolgus monkey, UniProt A0A140HDP4 46-217)
T3 construct: also called cyno FcyRIIB
T3 sequence: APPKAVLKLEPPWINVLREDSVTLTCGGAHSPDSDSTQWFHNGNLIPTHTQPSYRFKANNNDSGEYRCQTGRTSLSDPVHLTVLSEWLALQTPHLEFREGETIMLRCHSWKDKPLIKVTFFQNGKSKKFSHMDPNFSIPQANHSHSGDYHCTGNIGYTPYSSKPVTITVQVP

T4: His-tagged human FcγRIIA (R131) (human, UniProt P12318 36-218, limits assumed)
T4 construct: also called human FcyRIIA (R131)
T4 sequence (looked up): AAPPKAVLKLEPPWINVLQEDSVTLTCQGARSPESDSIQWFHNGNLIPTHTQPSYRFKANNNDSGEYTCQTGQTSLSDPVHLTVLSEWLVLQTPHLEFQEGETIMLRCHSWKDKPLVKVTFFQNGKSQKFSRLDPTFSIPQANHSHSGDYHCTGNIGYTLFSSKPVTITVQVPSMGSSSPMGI

T5: His-tagged human FcγRIIA (H131) (human, UniProt P12318 36-218, limits assumed)
T5 construct: also called hFcyRIIA (H131)
T5 sequence (looked up): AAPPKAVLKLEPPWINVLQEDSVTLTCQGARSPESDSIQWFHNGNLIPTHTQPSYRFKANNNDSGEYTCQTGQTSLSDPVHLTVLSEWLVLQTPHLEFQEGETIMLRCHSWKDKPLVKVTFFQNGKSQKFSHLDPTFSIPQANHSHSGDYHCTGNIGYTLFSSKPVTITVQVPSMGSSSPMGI

T6: human CD20 on cells (Raji, CD3-, CD20+ human B-cell line; B16F10.9/CD20 cells) (human, UniProt P11836 1-297)
T6 sequence (looked up): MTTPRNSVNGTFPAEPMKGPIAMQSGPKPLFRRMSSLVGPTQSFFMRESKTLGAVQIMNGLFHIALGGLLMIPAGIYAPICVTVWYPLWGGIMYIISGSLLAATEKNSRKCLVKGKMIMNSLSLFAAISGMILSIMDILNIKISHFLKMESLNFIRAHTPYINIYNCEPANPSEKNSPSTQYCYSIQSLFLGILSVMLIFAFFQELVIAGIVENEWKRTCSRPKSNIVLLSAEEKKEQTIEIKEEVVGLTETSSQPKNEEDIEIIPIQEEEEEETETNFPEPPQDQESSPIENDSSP


Tests used:
[1] = molecular target: T7, His-tagged human FcγRI (human, UniProt P12314 16-288); assay: SPR (Biacore T200), His-captured human FcγRI, antibody injected, 25 C
T7 construct: also called human FcRγI; hFcγRI
Experimental: Briefly, SPR experiments were performed at 25° C. on a Biacore T200 instrument employing a carboxymethyl dextran-coated (CM-5) chip. A mouse monoclonal anti-penta-histidine antibody (GE Healthcare) was immobilized on the surface of the CM-5 sensor chip using standard amine-coupling chemistry. […] Kinetic association (kₐ) and dissociation (kd) rate constants were determined by processing and fitting the data to a 1:1 binding model using Scrubber 2.0 curve fitting software. Binding dissociation equilibrium constants (KD) and dissociative half-lives (t_{1/2}) were calculated from the kinetic rate constants as: KD (M)=kd/kₐ; and t_{1/2}(min)=(ln 2/(60*kd).

[2] = molecular target: T1, His-tagged human FcγRIIB; assay: SPR steady-state, His-captured FcγR, antibody injected, 25 C
[3] = molecular target: T8, His-tagged cynomolgus FcγRIIIA (cynomolgus monkey, UniProt Q8SPW2 17-208, limits assumed); assay: as above
T8 construct: also called cyno FcyRIIIA

[4] = molecular target: T2, His-tagged cynomolgus FcγRIIA; assay: as above
[5] = molecular target: T9, His-tagged human FcγRIIIA (F176) (human, UniProt P08637 17-208); assay: as above
T9 construct: also called human FcyRIIIA (F176)

[6] = molecular target: T3, His-tagged cynomolgus FcγRIIB; assay: as above
[7] = molecular target: T4, His-tagged human FcγRIIA (R131); assay: as above
[8] = molecular target: T10, His-tagged human FcγRIIIB (human, UniProt O75015 17-200); assay: as above
T10 construct: also called human FcyRIIIB

[9] = molecular target: T5, His-tagged human FcγRIIA (H131); assay: as above
[10] = molecular target: T11, His-tagged human FcγRIIIA (V176) (human, UniProt P08637 17-208); assay: as above
T11 construct: also called human FcyRIIIA (V176)

[11] = molecular target: T6, human CD20 on cells (Raji, CD3-, CD20+ …); assay: cell-based or functional assay
[12] = molecular target: T6, human CD20 on cells (Raji, CD3-, CD20+ …); assay: cell-based or functional assay; remark: listed apart in the source
[13] = molecular target: T12, cynomolgus CD3 on T cells of cynomolgus PBMCs (mkT cells) (cynomolgus monkey); assay: FACS, serially diluted antibody on cynomolgus PBMC T cells (mkT cells)
T12 construct: whole, on cells; also called cynomolgus T cells; monkey T-cells
Experimental: (§1) FACS data was acquired using the following protocol: Cells at 2×10⁵ per well were incubated with serially diluted antibodies for 30 min on ice. Post incubation, cells were washed and appropriate secondary (Jurkat, RAJI cells) or cocktail of secondary antibodies (for cyno PBMC) was added and incubated for an additional 30 minutes. After incubation, cells were washed, re-suspended in cold PBS containing 1% BSA and analyzed by flow cytometry on a BD FACS Canto II. Jurkat and Raji cells were gated by side and forward scatters, while cynomolgus T cells were also gated as a CD2+CD4+ population. The EC₅₀s for cell binding titration were determined using Prism software with values calculated using a 4-parameter non-linear regression analysis.

[14] = molecular target: T6, human CD20 on cells (Raji, CD3-, CD20+ …); assay: cell-based or functional assay; remark: listed apart in the source
[15] = molecular target: T6, human CD20 on cells (Raji, CD3-, CD20+ …); assay: FACS, serially diluted antibody on Raji cells (CD3-, CD20+)
Experimental: as §1

[16] = molecular target: T13, human CD3 on Jurkat cells (CD3+, CD20- human T-cell line) (human, UniProt P07766 23-207; P04234 22-171; P09693 23-182; P20963 22-164); assay: FACS, serially diluted antibody on Jurkat cells (CD3+, CD20-)
T13 construct: whole, on cells; SP34 is said to react with the epsilon chain
Experimental: as §1

T10 sequence (O75015 17-200 limits assumed): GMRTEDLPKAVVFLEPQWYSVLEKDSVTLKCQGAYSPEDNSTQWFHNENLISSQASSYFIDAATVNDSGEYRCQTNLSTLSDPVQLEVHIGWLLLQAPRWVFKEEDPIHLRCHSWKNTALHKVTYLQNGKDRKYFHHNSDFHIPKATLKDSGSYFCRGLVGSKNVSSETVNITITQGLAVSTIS
T7 sequence (P12314 16-288 limits assumed): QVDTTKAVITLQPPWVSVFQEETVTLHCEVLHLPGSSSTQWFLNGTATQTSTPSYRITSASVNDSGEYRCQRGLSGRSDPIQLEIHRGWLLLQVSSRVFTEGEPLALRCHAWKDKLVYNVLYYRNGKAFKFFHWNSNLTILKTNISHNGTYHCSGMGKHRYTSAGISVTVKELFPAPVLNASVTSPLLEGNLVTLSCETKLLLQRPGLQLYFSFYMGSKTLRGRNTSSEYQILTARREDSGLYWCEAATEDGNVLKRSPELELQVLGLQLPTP
T11 sequence (P08637 17-208 F176V limits assumed): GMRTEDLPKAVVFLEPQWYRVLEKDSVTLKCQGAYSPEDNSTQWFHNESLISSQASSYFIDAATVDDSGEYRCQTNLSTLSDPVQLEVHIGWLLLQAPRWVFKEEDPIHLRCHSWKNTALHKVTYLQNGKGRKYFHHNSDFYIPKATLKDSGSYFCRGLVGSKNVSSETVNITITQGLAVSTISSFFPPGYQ
T9 sequence (P08637 17-208 limits assumed): as the sequence (P08637 17-208 F176V limits assumed) above, with V160F counted along it
T8 sequence (Q8SPW2 17-208 limits assumed): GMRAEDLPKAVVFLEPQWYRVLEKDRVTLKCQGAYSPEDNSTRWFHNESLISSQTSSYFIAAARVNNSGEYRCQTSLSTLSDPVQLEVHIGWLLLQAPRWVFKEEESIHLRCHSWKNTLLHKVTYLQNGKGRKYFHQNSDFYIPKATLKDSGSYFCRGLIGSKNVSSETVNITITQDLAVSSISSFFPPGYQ

Row | binding result [1] | Kd [2] | Kd [3] | Kd [4] | binding result [5] | Kd [6] | Kd [7] | binding result [8] | Kd [9] | binding result [10] | EC50 [13] | EC50 [15] | EC50 [16] | Binder | % Survival B16F10.9/CD20 cells [M] (EC50, target-specific killing, FACS) [11] | Raji Cytotoxicity Activated Human T-cells [M] (EC50, calcein release) [12] | Raji Cytotoxicity Activated Monkey T-cells [M] (EC50, calcein release) [12] | Raji Cytotoxicity Human T-cells [M] (EC50, calcein release) [14] | Raji Cytotoxicity Monkey T-cells [M] (EC50, calcein release) [14]
1 | no binding | 1230 nM | 663 nM | 231 nM | no binding | 139 nM | 193 nM | no binding | 120 nM | no binding |  |  |  | Antibody 1 (CD3×CD20-chimericFc bispecific antibody) (bispecific antibody, human IgG4 S228P, Only the light chain variable region is tied to this antibody; also called Ab 1; Ab1) heavy 1: EVQLVESGGGLVQPGRSLRLSCVASGFTFNDYAMHWVRQAPGKGLEWVSVISWNSDSIGYADSVKGRFTISRDNAKNSLYLQMHSLRAEDTALYYCAKDNHYGSGSYYYYQYGMDVWGQGTTVTVSSASTKGPSVFPLAPCSRSTSESTAALGCLVKDYFPEPVTVSWNSGALTSGVHTFPAVLQSSGLYSLSSVVTVPSSSLGTKTYTCNVDHKPSNTKVDKRVESKYGPPCPPCPAPPVAGPSVFLFPPKPKDTLMISRTPEVTCVVVDVSQEDPEVQFNWYVDGVEVHNAKTKPREEQFNSTYRVVSVLTVLHQDWLNGKEYKCKVSNKGLPSSIEKTISKAKGQPREPQVYTLPPSQEEMTKNQVSLTCLVKGFYPSDIAVEWESNGQPENNYKTTPPVLDSDGSFFLYSRLTVDKSRWQEGNVFSCSVMHEALHNHYTQKSLSLSLGK heavy 2: EVQLVESGGGLVQPGRSLRLSCAASGFTFDDYTMHWVRQAPGKGLEWVSGISWNSGSIGYADSVKGRFTISRDNAKKSLYLQMNSLRAEDTALYYCAKDNSGYGHYYYGMDVWGQGTTVTVASASTKGPSVFPLAPCSRSTSESTAALGCLVKDYFPEPVTVSWNSGALTSGVHTFPAVLQSSGLYSLSSVVTVPSSSLGTKTYTCNVDHKPSNTKVDKRVESKYGPPCPPCPAPPVAGPSVFLFPPKPKDTLMISRTPEVTCVVVDVSQEDPEVQFNWYVDGVEVHNAKTKPREEQFNSTYRVVSVLTVLHQDWLNGKEYKCKVSNKGLPSSIEKTISKAKGQPREPQVYTLPPSQEEMTKNQVSLTCLVKGFYPSDIAVEWESNGQPENNYKTTPPVLDSDGSFFLYSRLTVDKSRWQEGNVFSCSVMHEALHNRFTQKSLSLSLGK VL: EIVMTQSPATLSVSPGERATLSCRASQSVSSNLAWYQQKPGQAPRLLIYGASTRATGIPARFSGSGSGTEFTLTISSLQSEDFAVYYCQHYINWPLTFGGGTKVEIKR | 1.95e-11 M | 2.5e-11 M | 9.1e-12 M |  | 
2 |  |  |  |  |  |  |  |  |  |  | 8740 nM | 59.9 nM | 38.5 nM | (Control) Antibody 4, CD3×CD20 antibody-wild-type Fc (wtFc) (bispecific antibody, human IgG1, Same variable regions as Antibody 1 and Antibody 2, wild-type IgG1 CH; also called Control Ab 4; Control 4) heavy 1: not shown heavy 2: not shown VL: EIVMTQSPATLSVSPGERATLSCRASQSVSSNLAWYQQKPGQAPRLLIYGASTRATGIPARFSGSGSGTEFTLTISSLQSEDFAVYYCQHYINWPLTFGGGTKVEIKR | 1.28e-11 M | 1.57e-11 M | 1.73e-12 M | 5.63e-11 M | 1.27e-12 M
3 | no binding | 2330 nM | 424 nM | 235 nM | no binding | 146 nM | 205 nM | no binding | 117 nM | no binding |  |  |  | Antibody 2 (CD3×CD20-chimericFc bispecific antibody) (bispecific antibody, human IgG1, also called Ab 2) heavy 1: EVQLVESGGGLVQPGRSLRLSCVASGFTFNDYAMHWVRQAPGKGLEWVSVISWNSDSIGYADSVKGRFTISRDNAKNSLYLQMHSLRAEDTALYYCAKDNHYGSGSYYYYQYGMDVWGQGTTVTVSSASTKGPSVFPLAPSSKSTSGGTAALGCLVKDYFPEPVTVSWNSGALTSGVHTFPAVLQSSGLYSLSSVVTVPSSSLGTQTYICNVNHKPSNTKVDKKVEPKSCDKTHTCPPCPAPPVAGPSVFLFPPKPKDTLMISRTPEVTCVVVDVSQEDPEVQFNWYVDGVEVHNAKTKPREEQFNSTYRVVSVLTVLHQDWLNGKEYKCKVSNKGLPSSIEKTISKAKGQPREPQVYTLPPSRDELTKNQVSLTCLVKGFYPSDIAVEWESNGQPENNYKTTPPVLDSDGSFFLYSKLTVDKSRWQQGNVFSCSVMHEALHNHYTQKSLSLSPGK heavy 2: EVQLVESGGGLVQPGRSLRLSCAASGFTFDDYTMHWVRQAPGKGLEWVSGISWNSGSIGYADSVKGRFTISRDNAKKSLYLQMNSLRAEDTALYYCAKDNSGYGHYYYGMDVWGQGTTVTVASASTKGPSVFPLAPSSKSTSGGTAALGCLVKDYFPEPVTVSWNSGALTSGVHTFPAVLQSSGLYSLSSVVTVPSSSLGTQTYICNVNHKPSNTKVDKKVEPKSCDKTHTCPPCPAPPVAGPSVFLFPPKPKDTLMISRTPEVTCVVVDVSQEDPEVQFNWYVDGVEVHNAKTKPREEQFNSTYRVVSVLTVLHQDWLNGKEYKCKVSNKGLPSSIEKTISKAKGQPREPQVYTLPPSRDELTKNQVSLTCLVKGFYPSDIAVEWESNGQPENNYKTTPPVLDSDGSFFLYSKLTVDKSRWQQGNVFSCSVMHEALHNRFTQKSLSLSPGK VL: EIVMTQSPATLSVSPGERATLSCRASQSVSSNLAWYQQKPGQAPRLLIYGASTRATGIPARFSGSGSGTEFTLTISSLQSEDFAVYYCQHYINWPLTFGGGTKVEIKR |  |  |  |  | 
